According to a protein production outcome set (Wang et al. 2014):
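Note: failed if final PepcDB status was selected cloned or expressed and not failed if soluble or beyond.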

Test: label from the status in PepcDB records
With “MTEINLLQPMHASTKRDYVQRVVEHDKAESAAVARQWGRDYWDGDRRYGYGGYRYDGRWRPLAQTLIDRYGIKPGMSVLDVGCGKGYLLYEFTQLVPDLTIAGIDVSEYGIANAKEDVRPQLRVGSAVELPYPDHSFDLVVSLGVLHNLPLEDVFRAVSEIERVGRGASKYLMVESFRNEREKANLLYWQLTCLSFHGPDTWAWIYDKCGYRGDHGFIFFE” the protein production was “failed”.
For “MTEKHLIWDLPLRIFHWGFAATILAAWYTAEQGADLVEIHMQLGFVALALIAFRILWGLIGPKHARFSQFVPSPKSLLSYLRSPNTAKSTAGHNPLGALMVILMILLISAQAISGLFINDDVFSSGPYYGRISNELEKVMKFLHHNTFDFMIAAIVLHIAAITFYWRVKKENLVLPMITGKKTTAQVKSSDAIPHSKIILGCIVAVCCVIFVYWLVVVNAPVIEEFYY”, the protein production was “failed”.
For “MTELVTFGETMLRLSPPGDERLETADQYAVRAAGAESNVAVAAQRLGVDAMWASKLPDSPVGRRVTGELKHHGVSVDVAWDDSDSARQGTYYLEQGSPPRGNDVIYDRQNASVTTATPAELPTEAIADAAGFHTSGITPALSETLESTTADLLSLAQDAGTTTSFDLNYRSKLWTPAEARSVLTELFPSVDLLVVAERDANVVLDRTGDAETIARDLAAEYGFEATVITRGSDGALALADGTVTEQPTFESTDAHPVGTGDSFVGGFLSQYLSGGTVADGLAWGAATAALKRTIPGDIAVVSPDEIRSILSGDTEAISR”, the protein production was “failed”.
For “MTENEFLSQEEIDKLLSDSDTGGVLTPEEKDMIGEIGNIAMGSAATTLSMILGRDIHITVPTVREEKMKNVKSDFSGEQVVVSVEYTEGLEGLNVLVLDKKLVAVIADLMMGGSGEVETEELDEIKLSAVGEAMNQMMGSAATSLSELLGITINISPPKVEI”, the protein production was “not failed”.
With “MTENVVCTGAVNAVKEVWEKRIKKLNEDLKREKEFQHKLVRIWEERVSLTKLREKVTREDGRVILKIEKEEWKTLPSSLLKLNQLQEWQLHRTGLLKIPEFIGRFQNLIVLDLSRNTISEIPPGIGLLTRLQELILSYNKIKTVPKELSNCASLEKLELAVNRDICDLPQELSNLLKLTHLDLSMNDFTTIPLAVLNMPALEWLDMGSNKLEQLPDTIERMQNLHTLWLQRNEITCLPQTISNMKNLGTLVLSNNKLQDIPVCMEEMANLRFVNFRDNPLKLKVSLPPSEGTDEEEERELFGLQFMHTYIQESRRRADHQVNGSTTLPISINTDG” the protein production was “not failed”.
In the case of “MTEPANNHPSPPPQNWLFKWWNSLNAITRLLVLVLGAPLMVLNARALSSIFGYFESLFVISLIASVIAFLLNYPVAWLEKQGAKRFVAASFVFLTALIIFTALGVTLIPLALSQAQQLVARLPDWLDSGQKQLVLLDQKAEILGWPVNFDGLIPQINSRLAAELQNLAGSTLNLALSLTVFTVVRLLDVLLTIILTFYLLLHTDDVWQSIIGWLPERFQKPFSDTLRRSFQNYFLGQLVSATCMALGLISGFLLLKVPFGLLFGLTVGVMALIPFGGSVGIVLVTFLVALRDIGMALQLLAVALVIQQIVENGIAPRVLGSVTGLNPFWVLISLLTGARIGGLLGVIVAVPSAVMIKEALGAIRSMKPLVPAPDHNQDPLYFKNQEEVQPLPPRP”, the protein production was “failed”.
With “MTEQAQYRDPRLVILYDRLNRWGADDDFFLALANETPGCRLLDLGCGTGRLTTALARAGHQVTGLEPARASLEVAQRKPGAEAVCWLQGSAQDAPTAAFDLCLMTAHVAQVFVEDDAWQDVLQHIHRALVPGGRLSFDMRDPAARAWDTWDSAGKRERLTLLDGSEAETWCDVLDVAGPIVSGPVVHFAEHTRFLPGQDVLTSTSRLRFRREDELRASLQAAGFAVEQVYGGWHGEPVGTGCGELVVVARRPG” the protein production was “failed”.
With “MTESFTRRERLRLRRDFLLIFKEGKSLQNEYFVVLFRKNGLDYSRLGIVVKRKFGKATRRNKLKRWVREIFRRNKGVIPKGFDIVVIPRKKLSEEFERVDFWTVREKLLNLLKRIEG” the protein production was “not failed”.
In the case of “MTESNFDLPIISVIIPAYNCEKTIKKTIDSVLDQSFTDFELIVINDGSQDATLDIVSQIEDSRIKIFSFENAGGNVSRNRGLNLAVGKFISFLDADDIWTPNKLESQLEALHNNPGFHVAYSWTDYIDEDGNFLISGRRVTLNGDVYKKLFINNFLENGSNPLICKEALIALGGFDESLKAAQDWDMWLRLANKYSFVAVPYVQILYRVSSNSLSSNLVRQEKACKQVLEKAYQARPAIGNHILHLSIANLYKYLACKALQKPYSRSKGLAAVKFIWQYFLYDSSRMRRINSTLKLLFKALIIIILPAGLSTELLAKMRTKSLNPQLSAISGS”, the protein production was “failed”.
In the case of “MTETNESSGVNLKKDVKFSIIIPAHNEEKYIRKCLDSIAKASEAYKEQTEVIVVLNRCTDKTEEIAKSYNCVTLKNNDKNLSKIRNAGAKIANGEIIVTIDADTIMTESMLSNVDKYLASGKYIGGGVNGKFERISLGIFLSAMLIIIPLLFKYGAISVGIFWCYRKDFMAINGFNENMLMAEDADFAKRLKEWGKKNNKKFGTIKNGMITSCRRFDTYGDWTLLKNPKVILAYLKGNDRKYADKTYYDNQER”, the protein production was “failed”.
With “MTETYVLAESPEFYQDNVTDYTGQISSSDITNIQAAIDDVKASEQKVIFVVFLSSFDGVDPETWTQQALQANGGGNVLIYALAPEERQYGIQGGTQWTDAELDAANNAAFQALSQEDWAGSALEHHHHHH” the protein production was “not failed”.
With “MTEYVHGYSEREALRLSEQAETLEKLLHHDTVYPPGAKVLEAGCGIGAQTVILAKNNPDAEITSIDISPESLEKARENTEKNGIKNVKFLQANIFSLPFEDSSFDHIFVCFVLEHLQSPEEALKSLKKVLKPGGTITVIEGDHGSCYFHPEGKKAIEAWNCLIRVQAYMKGNSLVGRQIYPLLQESGFEKIRVEPRMVYIDSSKPELVDGFILKTIIPMVEGVKEQSLKMQIIKEEEWEKGIEELHKTAEHGGTFCYTFFKGWGTK” the protein production was “failed”.
In the case of “MTFLDKIKQGCLDGWAKYKILPSLTAAQTILESGWGKHAPHNALFGIKADSSWTGKSFDTKTQEEYQAGVVTDIVDRFRAYDSWTDSIIDHGKFLNDNPRYQAVIGETDYKKACHAIKDAGYATASGYAELLIQLIEENDLQEWDEEAIVRKEKQMISSQCREVIEFFINLVNAGVGVDKDGFAGWQCTDVPCYAAKHWFGVDLWGNAIDLLDSAAAVGWEVHRMPTDANPQTGAFFVQSVPYHQFGHTGVVIEDSDGYTMRTIEQNIDGNPDALYVGAPARFNTRDFTGVTGWFYPPYQGDIVTQPVSTEPQTSDTIVETAKTGTFTLDVAEINIRRWPSLTSEVVGSYKQGDTISFDSEGYANGYYWISYVGGSGMRNYTAIGITDKDGNIISLWGKLNLEHHHHHH”, the protein production was “not failed”.
In the case of “MTFTSNLPSSSEQSISPPASSFSSSTDTLKDIDIPHNGADLSTYSKFLALYCRSDKCDDFYSLEEKQNCKFGDQWLDFINTIHNLDFSESEVSGRVSERILPASLANKFTNNLGVAIKISEYTRDDERQIRGCVTTVENENSFNNWFVYHILDQSQLSLSEHPIVTKEVKYHELFADFFEKNLKNTIVNDQWNFGGRDYFIERSRYFTDRYLRIECILPAFPCKSSNEQKVYGSVPDKGEELALKRLIKATQDLVKIYPPGMKIWIVSDGHVFSDCIGVDDDVVSTYTTKLHELYKRVAIPGVDAIGFCGLNDLFFSGAASKVFDPKWVSDVEVAHYTGTQICPKSDLSRQILMKGCDTDAGRLRKQIAIEGHPRLHLYRGFSRFMMEDLSLLEHFQSYSRKKFKKIISMIAFNMIKRNDAYSNLVELIFPHHLRISIHAHTNSGPKFGIKVISNEQCSIVSSLEDLDEPKFEDFLHIPTPWHNCVVKVEDEKEKYFLTKSKVVKEALEKGMYDGVWKDTRFDIGEGGHFVIKKIS”, the protein production was “failed”.
In the case of “MTGEEITAAIHQVLTERMNNRHLDGFGPQSRLNADLYLDSVLMLDLLLHLELDHGITAPEEAIATAAIQTVSDLVELLAGASPATSGASDTAVADGPDVHADVYPDIKVHCVVSCLCDAVKAAGLDHRPMYFGIWDADFAVSDKFELRYHTDHISHGFFCHWFHRLYGVRVTEWYDHSAGKQSNLARLIGLVDARRPTESVMVMLDMFHLPERENKFNQYPFPHYLMVEATPDPETWQVRDPDFRWEGPIAKERILNAVAQPSVGGGYIFDRCTMRLPAAVDIGDYFLACFVSDDNPLIRRLREIVDTHLGCRDGLRLQALGDAVRELPVLSIRKWAYEHGFAFFWRELRLPNDAFLTWCDRIEELALGLPALHLKILRLAQTEDRTCAADIHQTLDRLDALETAIKVKLHEVFVAWCSHQGLTRATPRERRVGAR”, the protein production was “failed”.
In the case of “MTGIFLQAFVYLVAAVIAVPLAKRLGLGSVLGYLIAGVVIGPIIGLVGEETTTIQHFAEFGVVMMLFLVGLELEPKMLWAMRNRLMGLGGLQVGGTVAAIMGIALYFEQPWTIALAIGLIFALSSTAIVLQTFSEKGLTKTEGGKNAFSVLLFQDIAVIPMLAFIPLLALPELVEQAQNAVQTAAQHHDDLNLVADLPGWAYGIVITASIAIVVVGGHFLSRPLLKYVASSGLREIFTATALMLVIGIAALMSLVGLSPALGTFLAGVVLANSEFRHELESNIEPFKGLLLGLFFITVGAGINFSVLFGDFWLIMALTIGVMVLKALVLFILALIFRVKGSNRWLFTLSLAQAGEFGFVLLSFSVQNHVIPFELSQTLALVVAISMFLTPGLFILFDRVILPRFETQSNERESDTIEETGTVIIAGIGRFGQIVNRLLVSNGVTTVVLDHQANQVDNMRQIGTRAYFGDATRPDMLHTAGIEHAAALVVAIDNQESSVELVKYVKHTYPKVKIIARAFDRGHGYLLRQAGADVIESETYHSALEMGGHAMKALGIHPFFVEQQKDTYKRVEARKSEMLYQAWEDDSEGERFDNNFRELFIQLEEKMAEEMRKDRHDKLSRSERGWTPPPKGYAENFDGENVQDITPPKEEAI”, the protein production was “failed”.
With “MTGKEEISSKYDDYSLKEVPKDSRYGFFNVFLVFSSVYGAIAVIWAGGALGYGLTFSQAIIAVLSGTVVLGILGSLTAAVGAYSGLSTYVMWRHPLGRWGGKIAGLLLITITTGIGWYAVETWLFGIVMSEIFPNNPFFSVGVAAIWGGILMTIMTYVGYRMLSFLSYFTIPFHIWLIAIGIAIVLALKGGFHTVMAAVPTSHMSLLDGISATIGLYSAGTIISPDISRFAKSAKDAGYAWFAHIIFLYPFLILGGVAIVLATGSYLITNAMLELGMGVGVLLIIVFGQFIINTDNLYSGSLSLVNLIPMRREIASVINGVIGTAIAAYVGFSAGSSITPFENFISLLGDFLPAMGGIVLADFYIVKKYVNKIQDPHKRYEFVPNNKYYNINIAGILALALGSIIGYFVNAGIPAINSLVTGFLSYIIIYYIIKAMGKSPEILPFNYEGGILR” the protein production was “failed”.
With “MTGKKRSASSSRWLQEHFSDKYVQQAQKKGLRSRAWFKLDEIQQSDKLFKPGMTVVDLGAAPGGWSQYVVTQIGGKGRIIACDLLPMDPIVGVDFLQGDFRDELVMKALLERVGDSKVQVVMSDMAPNMSGTPAVDIPRAMYLVELALEMCRDVLAPGGSFVVKVFQGEGFDEYLREIRSLFTKVKVRKPDSSRARSREVYIVATGRKP” the protein production was “not failed”.
For “MTGLSQSQASPMQIQPGNAAFNPWTDAALDTIRDVNQALTLYAEMRVVPAHHDAFLAAIDTVSAKLRVLPGFLSLALKQMSGDSTMVKNYPETYKGVLATAYLDGVAAGTQPYFYNLFVRFADGRAARAAGFEALFETHIHPLLHAMAPRGGDGPELLAYRAVLQSVVAGDRHAIYRGAEEIRSFLRRPVELPERETVTVENHVMVPEDKHAAWEPQVAILLQVAQDTFEPQDEPSGVGLPGARDNRYYRKALSTEILRNAHADGGLRAYIMHGVWESVWDHENSHLDPRFLAAAGPVGAAAVVGPVEPFYLTRRLVVAD”, the protein production was “not failed”.
In the case of “MTGQELRQLLLDKWGYSYDVQFRRTQGKIFLQVMWKYLEQASFPMNETEYQEHLDSVANYLHALGGAVQVKTFITQTKERPRLGKAVSIPLDLGERASEWIILEHHHHHH”, the protein production was “not failed”.
